Data from article PMC11612273 (2024).
Substitutions are numbered along the chain they refer to. Names and notes keep the numbering of the source.

T1: GST-BRAKJK (tomato (Solanum lycopersicum), labeled with RED-NHS)
T1 chain: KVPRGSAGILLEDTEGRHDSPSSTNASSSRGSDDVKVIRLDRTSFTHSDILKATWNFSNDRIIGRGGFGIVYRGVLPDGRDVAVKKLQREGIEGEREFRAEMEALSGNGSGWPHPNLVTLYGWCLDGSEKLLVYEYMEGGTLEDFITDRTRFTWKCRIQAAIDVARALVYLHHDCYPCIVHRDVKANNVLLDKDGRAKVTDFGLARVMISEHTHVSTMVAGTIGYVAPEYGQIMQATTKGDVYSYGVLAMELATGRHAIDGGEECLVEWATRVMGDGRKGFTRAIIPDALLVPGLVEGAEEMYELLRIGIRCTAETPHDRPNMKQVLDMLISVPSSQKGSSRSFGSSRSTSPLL

T2: GST-PSKR1JK (tomato (Solanum lycopersicum), UniProt A0A3Q7E8N4 1-1013, labeled with RED-NHS)
T2 chain: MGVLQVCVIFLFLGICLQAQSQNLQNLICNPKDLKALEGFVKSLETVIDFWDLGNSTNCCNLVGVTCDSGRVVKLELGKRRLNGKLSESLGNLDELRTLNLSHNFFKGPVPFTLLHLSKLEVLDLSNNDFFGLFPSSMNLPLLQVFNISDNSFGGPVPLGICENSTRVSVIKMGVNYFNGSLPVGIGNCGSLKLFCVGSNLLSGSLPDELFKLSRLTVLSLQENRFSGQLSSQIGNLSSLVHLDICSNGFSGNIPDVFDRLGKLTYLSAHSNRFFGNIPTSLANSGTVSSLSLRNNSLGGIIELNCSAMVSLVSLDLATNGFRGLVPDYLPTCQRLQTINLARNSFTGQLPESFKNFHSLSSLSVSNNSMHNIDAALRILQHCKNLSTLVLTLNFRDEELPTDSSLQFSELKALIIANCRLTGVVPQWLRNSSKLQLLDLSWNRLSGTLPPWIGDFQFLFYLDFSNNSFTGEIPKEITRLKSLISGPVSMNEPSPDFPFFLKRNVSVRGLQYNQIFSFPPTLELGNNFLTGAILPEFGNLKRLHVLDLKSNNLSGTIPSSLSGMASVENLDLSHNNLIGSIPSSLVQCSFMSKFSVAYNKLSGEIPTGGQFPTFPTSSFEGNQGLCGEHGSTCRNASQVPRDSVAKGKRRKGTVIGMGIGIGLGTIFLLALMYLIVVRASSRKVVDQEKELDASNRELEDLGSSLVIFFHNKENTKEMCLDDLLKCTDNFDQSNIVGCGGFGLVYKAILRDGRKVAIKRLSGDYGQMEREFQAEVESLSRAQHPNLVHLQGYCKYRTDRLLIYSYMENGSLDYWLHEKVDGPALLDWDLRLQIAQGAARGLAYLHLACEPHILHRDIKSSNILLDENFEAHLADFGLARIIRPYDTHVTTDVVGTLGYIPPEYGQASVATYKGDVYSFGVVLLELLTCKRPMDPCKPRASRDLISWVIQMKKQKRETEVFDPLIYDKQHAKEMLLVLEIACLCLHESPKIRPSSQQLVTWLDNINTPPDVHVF

B1: PSKR1JK^Y843F (phospho-mutated) (domain or fragment)
chain: VRASSRKVVDQEKELDASNRELEDLGSSLVIFFHNKENTKEMCLDDLLKCTDNFDQSNIVGCGGFGLVYKAILRDGRKVAIKRLSGDYGQMEREFQAEVESLSRAQHPNLVHLQGYCKYRTDRLLIYSYMENGSLDYWLHEKVDGPALLDWDLRLQIAQGAARGLAFLHLACEPHILHRDIKSSNILLDENFEAHLADFGLARIIRPYDTHVTTDVVGTLGYIPPEYGQASVATYKGDVYSFGVVLLELLTCKRPMDPCKPRASRDLISWVIQMKKQKRETEVFDPLIYDKQHAKEMLLVLEIACLCLHESPKIRPSSQQLVTWLDNINTPPDVHVF
B2: PSKR1JK, wild type (ligand of the MST) (domain or fragment)
chain: B1 chain with F167Y
B3: PSKR1JK^T890A (phospho-mutated) (domain or fragment)
chain: B1 chain with F167Y, T214A
B4: BRAKJK^Y1048F (phospho-dead) (domain or fragment)
chain: T1 chain with Y303F
B5: BRAKJK^T1027A (phospho-dead; printed BRAKJK^T1024A in the results) (domain or fragment)
chain: T1 chain with T282A
B6: BRAKJK, wild type (ligand of the MST) (domain or fragment)
chain: MPGRLVCGDSIETDKQLLLNLKSFLKEQNPVDKGFKYNHWNPTDLSPCRWPGISCTTSINRVTGIDLSESNLAGKLFNNFSAMTELNSLDLSKNTFSESIPSDLGWCRNLKFLNLSHNIIVGDLNLTGLNKLEVLDLTMNRIHGLTIPEICDNLAVANISNNNFTSESGFEFSHCKKLKYLDLSYNYLTGNLSFGLDMLNMFSASHNNLSGSLPSWIFTQNCSLQGLDLSENRFFGELPTSIANCKRLVELNLWGNSFSGSIPRGIGSVHSLKELCLGSNNFSSDVPDTLSGLNKLVFLDLSRNNFGGEIQEIFGQLTQVRFLVLHGNSYTGGIVSSGIPNLVNLSRLDLSDNHFSGPLPVEISEMKGLEFLILAHNQFSGNIPSEYGDLTALQAVDLSSNRINGSIPPSFGKLRSLLWLMLANNSLSGEIPSELGNCSSLLWLNLANNQLTGPIPPQLASIGADPMLTFLLNRGKEKLTASPGDCFAMRRWIPADYPPFSFIYPLLTGKSCRILGDKLFMGDGLMPLCEPGSNVRKNQVPGYIQLSDNKLSGEIPPEISNMKKMSMMHLGANEFSGRLPSEIGQLHLVVLNVSQNKFSGEIPKQIGHLKCLLNLDLSFNNFSGPFPVSFSNLHDLSKFNISYNQYIYGAVPETGQLLTFDKSSFLGNPLLRLPSFMHNSKNNTERNTNDTHKKPKKVGALLVIVVLVLAFLVCGVMSLVVCLLIKVPRGSAGILLEDTEGRHDSPSSTNASSSRGSDDVKVIRLDRTSFTHSDILKATWNFSNDRIIGRGGFGIVYRGVLPDGRDVAVKKLQREGIEGEREFRAEMEALSGNGSGWPHPNLVTLYGWCLDGSEKLLVYEYMEGGTLEDFITDRTRFTWKCRIQAAIDVARALVYLHHDCYPCIVHRDVKANNVLLDKDGRAKVTDFGLARVMISEHTHVSTMVAGTIGYVAPEYGQIMQATTKGDVYSYGVLAMELATGRHAIDGGEECLVEWATRVMGDGRKGFTRAIIPDALLVPGLVEGAEEMYELLRIGIRCTAETPHDRPNMKQVLDMLISVPSSQKGSSRSFGSSRSTSPLL

Target: T1, GST-BRAKJK
Assay: MST

Point of comparison: B3, Kd 2270 nM. Against it:
- B1 — within 1.5-fold, 1800 nM
- B2 — 13-fold lower, 171 nM

Target: T2, GST-PSKR1JK
Assay: MST

Point of comparison: B4, Kd 6900 nM. Against it:
- B5 — 2.8-fold lower, 2430 nM
- B6 — 35-fold lower, 196 nM
